According to paper PMC9019814:

What was measured:
[1] = target: βB2-crystallin (calf (endogenous in calf lenses)) (UniProt P02522)
alcohol dehydrogenase = alcohol dehydrogenase (UniProt P00330)
citrate synthase = citrate synthase (UniProt P00889)
Chain of citrate synthase (P00889 28-464): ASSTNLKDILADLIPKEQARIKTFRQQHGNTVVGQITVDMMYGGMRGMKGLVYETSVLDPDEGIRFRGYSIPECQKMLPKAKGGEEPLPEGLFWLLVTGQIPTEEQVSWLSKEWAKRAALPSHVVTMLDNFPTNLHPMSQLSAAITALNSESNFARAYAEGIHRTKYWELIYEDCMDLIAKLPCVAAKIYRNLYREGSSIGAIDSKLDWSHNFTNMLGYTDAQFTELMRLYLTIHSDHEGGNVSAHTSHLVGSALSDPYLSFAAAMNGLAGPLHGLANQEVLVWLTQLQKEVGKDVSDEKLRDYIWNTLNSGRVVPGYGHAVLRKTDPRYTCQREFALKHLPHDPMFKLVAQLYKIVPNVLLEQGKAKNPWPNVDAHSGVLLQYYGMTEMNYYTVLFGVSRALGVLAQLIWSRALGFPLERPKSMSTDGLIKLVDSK

Chain of human wild-type αA-crystallin (P02489 whole entry): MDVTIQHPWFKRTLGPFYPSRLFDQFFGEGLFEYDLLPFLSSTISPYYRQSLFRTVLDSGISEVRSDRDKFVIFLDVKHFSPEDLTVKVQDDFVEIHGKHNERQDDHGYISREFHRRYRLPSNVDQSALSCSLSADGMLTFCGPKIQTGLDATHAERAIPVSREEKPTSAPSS
Chain of βB2-crystallin (calf (endogenous in calf lenses)) (P02522 whole entry): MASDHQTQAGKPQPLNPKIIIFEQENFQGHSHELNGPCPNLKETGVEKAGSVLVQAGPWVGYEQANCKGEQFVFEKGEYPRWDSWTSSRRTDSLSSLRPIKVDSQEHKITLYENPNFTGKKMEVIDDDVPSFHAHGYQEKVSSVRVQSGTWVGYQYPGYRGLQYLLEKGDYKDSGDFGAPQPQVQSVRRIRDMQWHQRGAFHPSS
Chain of alcohol dehydrogenase (P00330 whole entry): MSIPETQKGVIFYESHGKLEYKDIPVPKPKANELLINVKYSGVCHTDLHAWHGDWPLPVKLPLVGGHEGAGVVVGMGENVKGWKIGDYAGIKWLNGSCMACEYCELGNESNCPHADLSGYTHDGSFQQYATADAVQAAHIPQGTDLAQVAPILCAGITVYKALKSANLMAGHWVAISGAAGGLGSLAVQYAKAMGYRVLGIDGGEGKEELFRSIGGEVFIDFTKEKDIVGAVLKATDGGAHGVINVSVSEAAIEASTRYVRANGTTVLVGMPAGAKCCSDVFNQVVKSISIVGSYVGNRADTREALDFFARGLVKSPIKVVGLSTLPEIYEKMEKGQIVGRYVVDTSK

amount of chaperone protein that suppresses the aggregation of βB2-crystallin (250 µg in 1 ml) at 37°C by 50%, scattering at 360 nm at 60 min [1]: 30 µg
EC50 of chaperone protein for suppression of EDTA-induced aggregation of ADH (250 µg in 1 ml) at 37°C, scattering at 360 nm at 60 min (alcohol dehydrogenase): 45 µg
amount of chaperone protein for fifty percent protection from thermal aggregation of CS (75 µg in 1 ml) at 43°C, scattering at 360 nm at 60 min (citrate synthase): 22 µg
Substance: human wild-type αA-crystallin (from UniProt P02489 1-173) (natural protein)
